In patent US20190282673A1, “STAPHTAME ACTIVITY ON BIOFILMS” (priority 2016, published 2019):
Values joined by “and” are separate entries in the source; they are usually repeats but may differ in a detail not shown here. Equal values may be shown once.

Columns and labels:
[1] = tested on: S. aureus biofilms; experiment: MBIC and checkerboard synergy on preformed biofilm (MTT assay); format: cell-based, Staphylococcus aureus
Protocol: […] LB supplemented with 50 μg/mL CaCl2 was used for daptomycin treatment wells. The contents of the well was aspirated out and discarded. The biofilm adhered to the wells was quantified by MTT assay as described above. The MBIC was defined as the minimum concentration of P128 or the drug showing no colour development. […] In each experiment, in addition to the combination MBIC, the MBIC of each drug was also determined individually. The fractional MBIC concentrations were determined by MTT dye method as described above. The FICI and synergy was also calculated in a similar manner.
The ability of P128 to inhibit growth of S. aureus in a preformed biofilm was measured by determining minimum biofilm inhibition concentration (MBIC), defined as minimum concentration showing growth inhibition in a MTT based assay. […] 11:226.
The assay was optimized using the standard S. aureus strain ATCC 29213. An overnight-grown culture of the strain was diluted 1:40 in LB broth 200 μL of diluted culture was aliquoted into microtiter plate wells. Microplates were placed in a shaker-incubator set to 37° C., and 100 rpm for 24 h followed by 48 h incubation under static conditions at 37° C. The contents of one set of four wells were aspirated and discarded. Wells were washed twice with 1×PBS and the presence of biofilm in the wells at the end of this 72-hour period was determined by metabolic dye-reduction assay method using MTT (3-(4, 5-dimethylthiazol-5-diphenyltetrazolium bromide; Himedia). In this assay, live cells reduce the dye leading to color formation which can be read at 570 nm, and the intensity of color can be correlated to number of live cells. 100 μL of PBS was added to the wells along with 10 μL of MTT solution. The plate was incubated for 2 h in the dark. After this, 110 μL of solvent solution solubilizing agent was added and the plate was incubated for 15 minutes at ambient temperature with gentle agitation. The absorbance was read at 570 nm in a microplate reader. Another set of four wells was processed for harvesting the biofilm and determination of CFUs present by plating on solid media. For biofilm inhibitory studies, the wells were washed twice with 1×PBS and challenged with various concentrations of P128 or other antibiotic drugs and incubated for 24 h at 37° C. The contents of the well was aspirated out and discarded. The biofilm adhered to the wells was quantified by MTT assay as described above. The MBIC was defined as the minimum concentration of P128 or the drug showing no colour development. […] In each experiment, in addition to the combination MBIC, the MBIC of each drug was also determined individually. The fractional MBIC concentrations were determined by MTT dye method as described above. The FICI and synergy was also calculated in a similar manner.
In order to determine whether P128 could synergize with known anti-Staphylococcus drugs to inhibit S. aureus in biofilms. […] The assays were performed in a 96 well checkerboard format using various concentrations of P128 and one of the antibiotics.

[2] = tested on: S. haemolyticus B9511 biofilms; experiment: as above; format: cell-based; conditions: S. haemolyticus B9511 72 h preformed biofilm, 6 hr treatment
Protocol: […] LB supplemented with 50 μg/mL Ca^++ was used for daptomycin treatment wells. The contents of the well was aspirated out and discarded. The biofilm adhered to the wells was quantified by MTT assay as described above. In each experiment, in addition to the combination MBIC, the MBIC of each drug was also determined individually. The fractional MBIC concentrations were determined by MTT dye method as described above. The FICI and synergy was calculated.

[3] = tested on: S. aureus biofilm; experiment: Bactericidal activity on biofilm (CFU reduction); format: cell-based, Staphylococcus aureus
Protocol: In order to determine whether P128 could also act as a bactericidal agent in biofilms, the CFU reduction were monitored in S. aureus ATCC 29213 72 h preformed biofilms treated with various concentrations of P128 for 6 h. For CFU enumeration in catheter biofilm, the catheters were removed from the tubes, rinsed twice in PBS and placed in eppendorf tubes containing 1 mL PBS. To release the adhered biofilm into PBS, the catheters were scraped using inoculation loop. The samples were vortexed thoroughly and plated on LB agar plates.

[4] = tested on: S. epidermidis, S. lugdunensis and S. haemolyticus biofilms; experiment: CoNS biofilm eradication, crystal violet staining; format: cell-based
Protocol: Dis. 209:1469-78 was followed. Briefly, S. epidermidis, S. lugdunensis and S. haemolyticus strains were inoculated into TSB with 2% glucose and the cultures were grown overnight. The cultures were diluted 1:50 in TSB to achieve an OD600˜0.1. Two hundred micro liter of the diluted culture was added to 1.8 ml of TSB media aliquoted into each well of a 24 well plate (˜5×10^5 CFU). The plates were kept at 37° C. under static conditions for 18 h, the contents were aspirated, the wells were washed twice with 2.0 ml of 1×PBS, and 1 mL of media+1 mL of the drug was added to each well and incubated at 37° C. for 0, 2, 4, and 24 h. TSB supplemented with 50 μg/ml Ca^++ was used for daptomycin treatment wells. The contents were aspirated out at the stipulated time points and the wells were washed with 2 ml of 1×PBS. The wells were allowed to dry at 37° C. for 15 min and stained with 1 mL of 1% CV for 5 min. The wells were washed with 1 mL of 1×PBS, air dried and observed for intensity of blue color.
0.1% CV was used for staining biofilms. Post staining and washing steps, 1 mL 30% acetic acid is added to each well, incubated in RT for 5-10 min, contents in the well are mixed thoroughly and OD was read at 570 nm.

[5] = tested on: S. aureus BK18 and B9377 persisters; experiment: P128 and antibiotic activity on persisters (CFU); format: cell-based, Staphylococcus aureus; conditions: for CFU/mL after treatment of persisters: 1×MIC, P128 1 h, antibiotics 6 h
Protocol: Persisters were generated as above were treated with P128 and antibiotics (Ref: Gutiérrez, et al. (2014) Effective Removal of Staphylococcal Biofilms by the Endolysin LysH5 PLoS One 9(9): e107307).
To 450 μL aliquots, P128. Daptomycin and Vancomycin (in saline) were added (individually) each at 1×MIC Conc., and another 450 μL aliquot was taken as control. The persister samples treated with P128 were incubated for 1 h, 37° C., and 200 rpm and those treated with antibiotics were incubated for 6 h, 37° C., and 200 rpm. After incubation samples were serially log diluted and plated.

B1: P128: anti-staphylococcal chimeric protein: phage tail associated muralytic enzyme (TAME) cell wall-degrading region plus staphylococcus-specific binding region; SEQ ID NO: 1 (protein)
chain: MSLDSLKKYNGKLPKHDPSFVQPGNRHYKYQCTWYAYNRRGQLGIPVPLWGDAADWIGGAKGAGYGVGRTPKQGACVIWQRGVQGGSPQYGHVAFVEKVLDGGKKIFISEHNYATPNGYGTRTIDMSSAIGKNAQFIYDKKLETPNTGWKTNKYGTLYKSESASFTPNTDIITRTTGPFRSMPQSGVLKAGQTIHYDEVMKQDGHVWVGYTGNSGQRIYLPVRTWNKSTNTLGVLWGTIK
modifications: P128 chimera
[1]; 2 h assay, sensitive and resistant strains of S. aureus
  MBIC fold higher than planktonic MIC: 1-4 fold
[1]; S. aureus 8325-4 biofilm, 2 h
  MBIC: 7.8 µg/mL
[1]; S. aureus 8325-4 biofilm, 4 h
  MBIC: 15.6 µg/mL
[1]; S. aureus 8325-4 biofilm, 6 h
  MBIC: 15.6 µg/mL
[1]; S. aureus 8325-4 biofilm, 8 h
  MBIC: 31.25 µg/mL
[1]; S. aureus 8325-4 biofilm, 24 h
  MBIC: 1000 µg/mL
[1]; S. aureus ATCC 29213 biofilm, 2 h
  MBIC: 3.9 µg/mL
[1]; S. aureus ATCC 29213 biofilm, 4 h
  MBIC: 15.6 µg/mL
[1]; S. aureus ATCC 29213 biofilm, 6 h
  MBIC: 15.6 µg/mL
[1]; S. aureus ATCC 29213 biofilm, 8 h
  MBIC: 15.6 µg/mL
[1]; S. aureus ATCC 29213 biofilm, 24 h
  MBIC: 250 µg/mL
[1]; S. aureus B9241 biofilm, 2 h
  MBIC: 15.6 µg/mL
[1]; S. aureus B9241 biofilm, 4 h
  MBIC: 125 µg/mL
[1]; S. aureus B9241 biofilm, 6 h
  MBIC: 125 µg/mL
[1]; S. aureus B9241 biofilm, 8 h
  MBIC: 125 µg/mL
[1]; S. aureus B9241 biofilm, 24 h
  MBIC: >1000 µg/mL
[1]; S. aureus B9356 biofilm, 2 h
  MBIC: 7.8 µg/mL
[1]; S. aureus B9356 biofilm, 4 h
  MBIC: 15.6 µg/mL
[1]; S. aureus B9356 biofilm, 6 h
  MBIC: 31.25 µg/mL
[1]; S. aureus B9356 biofilm, 8 h
  MBIC: 62 µg/mL
[1]; S. aureus B9356 biofilm, 24 h
  MBIC: >1000 µg/mL
[1]; S. aureus BK1 biofilm, 2 h
  MBIC: 15.6 µg/mL
[1]; S. aureus BK1 biofilm, 4 h
  MBIC: 31.25 µg/mL
[1]; S. aureus BK1 biofilm, 6 h
  MBIC: 31.25 µg/mL
[1]; S. aureus BK1 biofilm, 8 h
  MBIC: 31.25 µg/mL
[1]; S. aureus BK1 biofilm, 24 h
  MBIC: 1000 µg/mL
[1]; S. aureus MW2 72 h preformed biofilm, 6 hr treatment
  MIC (drug alone) on biofilm: 6.25 µg/mL
[1]; Table 4, S. aureus ATCC 29213 preformed biofilm, 6 h
  MBIC (individual): 6.04 µg/mL
[1]; Table 4, S. aureus ATCC 29213 preformed biofilm, 24 h
  MBIC (individual): 200 µg/mL
[1]; Table 4, S. aureus B9241 preformed biofilm, 6 h
  MBIC (individual): 105.15 µg/mL
[1]; Table 4, S. aureus B9241 preformed biofilm, 24 h
  MBIC (individual): >1000 µg/mL
[1]; Table 4, S. aureus BK1 preformed biofilm, 6 h
  MBIC (individual): 28.95 µg/mL
[1]; Table 4, S. aureus BK1 preformed biofilm, 24 h
  MBIC (individual): 400 µg/mL
[2]
  MBIC (drug alone): 6.25 µg/mL and 12.5 µg/mL
[3]; S. aureus ATCC 29213 72 h biofilm, P128 7.8 μg/mL, 6 h
  Cells killed: > 90%
[3]; S. aureus ATCC 29213 72 h biofilm, P128 greater than 31 μg/mL, 6 h
  Cell killing: 99.9%
[3]; S. aureus MW2 biofilm on catheters, P128 8 μg/mL, daptomycin 10 μg/mL, vancomycin 15 μg/mL
  Reduction in CFU counts: 3 log
[4]; P128 8 μg/mL (1×MIC), SOC antibiotics 250×MIC or 100×MIC
  Removal of visual biomass: removed all visual biomass
[4]; P128 at 1×MIC (8 μg/mL)
  Time of treatment to eliminate the biofilms: ≤ 2 h
[4]; even after 24 h, all three CoNS sp.
  OD570 of crystal violet vs cell control: significant drop in OD
[5]; B9377 Daptomycin persisters
  CFU/mL after treatment of persisters: 1 × 10^1 CFU/mL
[5]; B9377 Vancomycin persisters
  CFU/mL after treatment of persisters: 2.5 × 10^1 CFU/mL
[5]; BK18 Daptomycin persisters
  CFU/mL after treatment of persisters: 1 × 10^1 CFU/mL
[5]; BK18 Vancomycin persisters
  CFU/mL after treatment of persisters: 5 × 10^1 CFU/mL
[5]; Vancomycin persisters (1×10^6 CFU/mL) of S. aureus BK18 and B9377 treated with P128
  Drop in CFU: ~5 log
[5]; daptomycin persisters of S. aureus treated with P128
  CFU recovered: < 10 CFU/mL
